From paper PMC7703624 (Proceedings of the National Academy of Sciences of the …, 2020)
Where a SMILES comes first, the peptide text is derived from it.

B1: wt2, Ac-…-NH2 (peptide)
peptide: Ac-SFEFPPPPTEDEL-NH2

Legend:
ENAH EVH1 [1] = target: T1, ENAH EVH1 (Homo sapiens, UniProt Q8N8S7); experiment: other fluorescence titration
Target sequence in this assay (Q8N8S7 whole entry): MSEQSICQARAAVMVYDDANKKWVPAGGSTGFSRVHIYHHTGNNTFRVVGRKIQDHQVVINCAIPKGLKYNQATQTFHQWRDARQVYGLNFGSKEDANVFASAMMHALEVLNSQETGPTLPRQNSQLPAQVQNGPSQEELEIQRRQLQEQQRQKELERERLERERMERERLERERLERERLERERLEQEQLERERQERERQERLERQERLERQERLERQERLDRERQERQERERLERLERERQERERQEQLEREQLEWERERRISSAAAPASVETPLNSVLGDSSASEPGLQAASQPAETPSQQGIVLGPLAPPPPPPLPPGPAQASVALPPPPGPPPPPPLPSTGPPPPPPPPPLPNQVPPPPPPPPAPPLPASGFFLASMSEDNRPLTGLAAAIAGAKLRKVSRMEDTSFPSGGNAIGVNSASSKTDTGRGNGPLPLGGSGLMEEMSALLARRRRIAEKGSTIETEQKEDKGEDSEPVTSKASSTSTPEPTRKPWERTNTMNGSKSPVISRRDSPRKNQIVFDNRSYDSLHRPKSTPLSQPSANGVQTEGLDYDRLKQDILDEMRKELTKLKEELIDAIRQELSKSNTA

ENAH EVH1 [2] = target: T1, ENAH EVH1; experiment: Fluorescence titration; assay type: binding
Fyn SH3 = Fyn SH3 (Homo sapiens, UniProt P06241); experiment: Pulldown of GST-Fyn SH3 from Jurkat cell lysate, displacement of ADAP; assay type: binding; details: Jurkat cell lysate 1 mg/ml, 50 µM active concentration
Sequence of Fyn SH3 (P06241 82-143 limits assumed): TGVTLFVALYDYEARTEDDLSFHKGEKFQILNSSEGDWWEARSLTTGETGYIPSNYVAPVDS

Molecule | Kd (ENAH EVH1 [1]) [nM] | also measured
2ΔC, Ac-SFE[2-Cl-Phe][ProM-2][ProM-1]-OEt (peptide) | 2900 | 
2ΔN, Ac-[2-Cl-Phe][ProM-2][ProM-1]TEDEL-NH2 (peptide) | 330 | 
CCOC(=O)[C@@H]1CCCN1C(=O)[C@@H]1CCCN1C(=O)[C@@H]1CCCN1C(=O)[C@@H]1CCCN1C(=O)[C@H](Cc1ccccc1)NC(C)=O [wt1, Ac–FPPPP–OEt] (Ac-FPPPP-OEt) |  | Kd (ENAH EVH1 [2]): 153 µM
Ac-RPLPPLP-NH2 [Ac–RPLPPLP −NH2] |  | displacement of ADAP from bead-bound GST-Fyn SH3 (Fyn SH3): displaced ADAP
chimeric peptide 2, Ac-SFE[2-Cl-Phe][ProM-2][ProM-1]TEDEL-NH2 | 150 | 
B1 | 13000 | 
